Experimental findings from article PMC7865296, “T Cell Mediated Conversion of a Non-Anti-La Reactive B Cell to an Autoreactive Anti-La B Cell by Somatic Hypermutation †” (International Journal of Molecular Sciences, 2021) are described below.

The target in assay [1] is T1, eukaryotic human La protein of HeLa cells (Homo sapiens (Human)., UniProt P05455).
T1 construct: human La/SS-B autoantigen, endogenous in HeLa cells; also called hLa; source: endogenous, HeLa total extract; endogenous, fixed HeLa cells
In words: SDS-PAGE and immunoblotting; total extracts of human HeLa or mouse 3T3 cells, denatured on the blot; probed with hybridoma supernatants. Conditions: partners not purified.

For assay [2], the target named is T2, GFP-La fusion protein La_(10–100) (Homo sapiens (Human)., UniProt P05455).
T2 construct: human La protein, residues 10-100 (La motif region); cloned into pEGFP-C2; pEGFP-C2 places GFP at the N-terminus of the insert (surmise); also called final La deletion mutant of Group 2; source: HeLa, transfected, in total extract
In words: SDS-PAGE and immunoblotting; total extracts of HeLa cells transfected with GFP-La fusion constructs (N- or C-terminally truncated La); probed with anti-La mabs; anti-GFP as control. Conditions: partners not purified. For orientation: Immunoblotting shows a protein as a band on a membrane.

In assay [3] the target is T3, recombinant human La protein, full length (aa 1-408), His-tagged (Homo sapiens (Human)., UniProt P05455).
T3 construct: also called rhLa; hLa; not shown: His tag, C-terminal, kept
Briefly: SDS-PAGE and immunoblotting; human (rhLa) or mouse (rmLa) La protein recombinantly expressed in E. coli, denatured on the blot; probed with hybridoma supernatants. As to conditions: one partner purified.

Assay [4] deals with T4, recombinant mouse La protein (Mus musculus (Mouse)., UniProt P32067).
T4 construct: mouse La protein, open reading frame cloned into pET28b; also called rmLa; mLa (recombinant)
The description is as above. As to conditions: one partner purified.

The target of assay [5] is T3, recombinant human La protein, full …. In words: SDS-PAGE and immunoblotting; recombinant human La (rhLa) on the blot; probed with purified recombinant 312B Ig4 or 312B ge Ig4. Conditions: both partners purified.
A further assay deals with T5, Ro60 antigen (Homo sapiens (assumed), UniProt P10155).
T5 construct: Ro60 (Ro/SS-A) antigen used in the anti-Ro ELISA; also called Ro/SS-A
In words: ELISA; hybridoma supernatants on Ro60 antigen; performed as in ref. 59. Background: In an ELISA, binding on a coated surface is turned into a signal by an enzyme label.

In assay [6] the target is T6, GFP-La fusion protein La_(107–200) (Homo sapiens (Human)., UniProt P05455).
T6 construct: cloned into pEGFP-C2; pEGFP-C2 places GFP at the N-terminus of the insert (surmise); also called final La deletion mutant of Group 1; source: HeLa, transfected, in total extract
In words: SDS-PAGE and immunoblotting; total extracts of HeLa cells transfected with GFP-La fusion constructs (N- or C-terminally truncated La); probed with anti-La mabs; anti-GFP as control. Conditions: partners not purified.

Assay [7] addresses T7, His-tagged La deletion mutant La_(278–408) (Homo sapiens (Human)., UniProt P05455).
T7 construct: cloned into pET28a
In words: SDS-PAGE and immunoblotting; His-tagged full length La and N- and C-terminally truncated La deletion mutants from E. coli (nickel-NTA); probed with 16C; 10-fold the usual amount of protein applied. As to conditions: one partner purified.

T3 sequence (P05455 whole entry, the tested form may be a part): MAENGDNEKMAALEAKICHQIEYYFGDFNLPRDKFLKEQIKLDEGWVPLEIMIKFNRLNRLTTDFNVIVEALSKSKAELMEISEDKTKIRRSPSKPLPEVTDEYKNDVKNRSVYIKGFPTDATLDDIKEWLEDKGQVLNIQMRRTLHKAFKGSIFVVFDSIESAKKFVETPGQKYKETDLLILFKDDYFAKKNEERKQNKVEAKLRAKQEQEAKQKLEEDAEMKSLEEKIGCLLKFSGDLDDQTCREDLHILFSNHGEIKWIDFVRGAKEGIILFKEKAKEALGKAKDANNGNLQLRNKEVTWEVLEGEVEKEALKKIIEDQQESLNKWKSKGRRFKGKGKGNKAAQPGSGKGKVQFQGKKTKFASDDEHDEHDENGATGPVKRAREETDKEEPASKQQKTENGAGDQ
T2 sequence (P05455 10-100): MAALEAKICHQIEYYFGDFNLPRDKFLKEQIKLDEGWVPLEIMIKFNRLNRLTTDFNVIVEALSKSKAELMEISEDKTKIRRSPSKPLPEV
T6 sequence (P05455 107-200): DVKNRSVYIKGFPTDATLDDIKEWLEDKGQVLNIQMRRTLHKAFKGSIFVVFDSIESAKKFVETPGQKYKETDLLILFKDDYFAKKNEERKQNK
T1 sequence (P05455 whole entry): as the sequence (P05455 whole entry, the tested form may be a part) above
T5 sequence (P10155 whole entry): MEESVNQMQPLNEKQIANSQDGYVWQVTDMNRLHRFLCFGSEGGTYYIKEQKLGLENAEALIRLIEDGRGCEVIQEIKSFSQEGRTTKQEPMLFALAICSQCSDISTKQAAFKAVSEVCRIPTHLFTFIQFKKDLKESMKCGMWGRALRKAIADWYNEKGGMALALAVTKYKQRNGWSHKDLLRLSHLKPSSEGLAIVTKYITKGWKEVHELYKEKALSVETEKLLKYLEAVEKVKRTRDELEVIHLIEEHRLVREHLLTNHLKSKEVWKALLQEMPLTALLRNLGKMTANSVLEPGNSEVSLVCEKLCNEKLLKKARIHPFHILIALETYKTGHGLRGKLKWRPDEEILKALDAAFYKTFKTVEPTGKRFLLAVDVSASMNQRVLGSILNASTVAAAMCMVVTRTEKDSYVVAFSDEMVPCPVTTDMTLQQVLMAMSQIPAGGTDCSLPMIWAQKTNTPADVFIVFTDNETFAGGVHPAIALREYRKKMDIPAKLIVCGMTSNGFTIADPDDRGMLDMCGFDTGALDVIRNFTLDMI
T7 sequence (P05455 278-408, stated change not applied): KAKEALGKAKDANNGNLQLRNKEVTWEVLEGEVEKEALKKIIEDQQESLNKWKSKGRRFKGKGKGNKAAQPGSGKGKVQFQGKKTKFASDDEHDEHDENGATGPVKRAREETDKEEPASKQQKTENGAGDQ
T4 sequence (P32067 whole entry): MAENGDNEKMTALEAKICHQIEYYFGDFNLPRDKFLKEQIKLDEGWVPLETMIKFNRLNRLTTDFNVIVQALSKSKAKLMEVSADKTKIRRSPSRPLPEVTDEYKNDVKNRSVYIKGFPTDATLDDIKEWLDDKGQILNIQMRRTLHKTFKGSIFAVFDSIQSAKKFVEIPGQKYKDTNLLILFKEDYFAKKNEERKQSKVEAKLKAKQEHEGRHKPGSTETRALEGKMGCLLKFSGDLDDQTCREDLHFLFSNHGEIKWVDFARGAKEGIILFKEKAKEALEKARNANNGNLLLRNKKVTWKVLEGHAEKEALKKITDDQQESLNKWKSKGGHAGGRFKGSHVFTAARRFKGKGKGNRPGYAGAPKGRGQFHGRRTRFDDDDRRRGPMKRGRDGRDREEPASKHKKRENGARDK

B1: anti-La monoclonal antibody 312B (antibody, V domains shown)
VH: QVKLQESGAELMKPGSSVKFSCKAAGYTFTDYWIEWLKQRPGHGLEWIGEILPGSVSIKYNEKFKGKATFTADTSSNTAYMQLSSLTSEDSAVYYCARSRSIYDGYFYYWGQGTTLTVSS
VL: DIVMTQSTASLSASVGETVTITCRASENIYTYLAWYQQKQGKSPQLLVYNAKTLAEGVPSRFSGSGSGTQFSLRINSLQPEDFGSYYCQHHYGTPYTFGGGTKLEIK
notes: IgG1; Vl 12-44, JK2; From the human La transgenic mouse; source: hybridoma cell culture supernatant
As to B1, the binding result in assay [1], in assay [2], in assay [3] and in assay [4] was “binds” in each case.

B2: recombinant antibody based on the germline 312B sequence (scFv fused on a human IgG4 hinge and Fc) (Fc fusion, mouse)
VH: QVQLQQSGAELMKPGASVKLSCKATGYTFTGYWIEWVKQRPGHGLEWIGEILPGSGSTNYNEKFKGKATFTADTSSNTAYMQLSSLTTEDSAIYYCARSRSIYDGYFDYWGQGTTLTVSS
VL: DIQMTQSPASLSASVGETVTITCRASENIYSYLAWYQQKQGKSPQLLVYNAKTLAEGVPSRFSGSGSGTQFSLKINSLQPEDFGSYYCQHHYGTPYTFGGGTKLEIK
notes: linker, printed as (Gly4Ser)3; VH-VL orientation; an Igkappa leader peptide was fused to the N-terminus for secretion; vector p6NST50; source: stably transduced 3T3 cell line, purified from cell culture supernatant (protein A); not shown: hinge and Fc (CH2-CH3) of human IgG4, C-terminal, kept
As for B2, in assay [5], the binding result is reported as “no binding”.

B3: recombinant antibody based on the mature 312B sequence (scFv fused on a human IgG4 hinge and Fc) (Fc fusion, mouse)
VH: QVKLQESGAELMKPGSSVKFSCKAAGYTFTDYWIEWLKQRPGHGLEWIGEILPGSVSIKYNEKFKGKATFTADTSSNTAYMQLSSLTSEDSAVYYCARSRSIYDGYFYYWGQGTTLTVSS
VL: DIVMTQSTASLSASVGETVTITCRASENIYTYLAWYQQKQGKSPQLLVYNAKTLAEGVPSRFSGSGSGTQFSLRINSLQPEDFGSYYCQHHYGTPYTFGGGTKLEIK
notes: as for B2
Regarding B3, in assay [5], the binding result is on record as “binds”.

B4: IgM type anti-Ro60 monoclonal antibody 312G (antibody, V domains shown)
VH: EVQLEESGPGLVAPSQSLSITCTVSGFSLSRYSVHWVRQPPGKGLEWLGMIWGGGSTDYNSALKSRLSISKDNSKSQVFLKMNSLQTDDTAIYYCATSNWPYAMDYWGQGTSVTVSS
VL: DIVMTQSPAIMSASPGEKVTMTCSASSSVSYMHWYQQKSGTSPKRWIYDTSKLASGVPARFSGSGSGTSYSLTISSMEAEDAATYYCQQWSSNPPTFGAGTKLELK
notes: variable heavy chain of 312G; variable light chain of 312G; IgM; Vl kk4, JK5; From the human La transgenic mouse; called polyreactive; also called anti-Ro mab (312G); anti-Ro60 mab; source: hybridoma cell culture supernatant
Consider B4, for which the binding result was “no binding” in assay [3] and “binds” with Ro60 antigen.

B5: anti-La monoclonal antibody 24BG7 (antibody, V domains shown)
VH: QVQLQQSGAELARPGASVKLSCKASGYSLTNYGISWVKQRTGQGLEWIGEIYRGSGNSYYNEKFKGKASLTADKSSSTAYMQLSSLTSEDSAVYFCARGGLSFAYWGQGTLVTVSA
VL: QIVLTQSPAIMSASPGEKVTMTCSASSSVTYMHWYQQKSGTSPKRWIYDTSKLASGVPARFSGSGSGTSYSLTISTMEAEDAATYYCQQWISNPPTFGGGTKLEIK
notes: variable heavy chain of 24BG7; variable light chain of 24BG7; IgG1; Vl kk4, JK2; From the human La transgenic mouse; also called Group 1 anti-La mab (24BG7); source: hybridoma cell culture supernatant
As for B5, in assay [6], the binding result is “binds”.

B6: anti-La monoclonal antibody 22A (antibody, V domains shown)
VH: QVKLEESGPELVKPGAPVKISCKTSGYTFTNYYIYWVKQRPGQGLEWIGYIYPGNGGTAYNQKFKDKATLTADNPSNTAYMQLSSLTSEDSAVYLCARRGALGYYFDYWGQGTTLTVSS
VL: QIVLTQSPAIMSASPGEKVTMTCSASSSVSYMYWYQQKSGTSPKRWIYDTSKLASGVPARFSGSGSGTSYSLTISSMEAEDAATYYCQQWSSNPQFGTGTKLEVK
notes: variable heavy chain of 22A; variable light chain of 22A; IgG1; Vl kk4, JK5; From the human La transgenic mouse; also called Group 1 anti-La mab (22A); source: hybridoma cell culture supernatant
In the case of B6, the binding result in assay [6] is given as “binds”.

B7: anti-La monoclonal antibody 2F9 (antibody, V domains shown)
VH: EVQLQESGPGILQPSQTLSLTCSFSGFSLSTSGMGVSWIRQPSGKGLEWLAHIYWDDDKGYNPSLKSRLTISKDTSRNQVFLKITSVDTADTATYYCARGDVEFDYWGQGTTLTVSS
VL: DIVLTQSTASLAVSLGQRATISCRASESVDSYGNSFMHWYQQKPGQPPKLLIYRASNLESGIPARFSGSGSRTDFTLTINPVEADDVATYYCQQSNEDPPTFGSGTKLEIK
notes: variable heavy chain of 2F9; variable light chain of 2F9; IgG1; Vl 21-5, JK4; From the human La transgenic mouse; also called Group 2 anti-La mab (2F9); source: hybridoma cell culture supernatant
Take B7: in assay [2], the binding result is “binds”.

B8: IgM type anti-La monoclonal antibody 16C (antibody, V domains shown)
VH: EVKLEESGPELVKPGSSVKISCKASGYTFTDYNMDWVKQSHGKSLEWIGAINPNNGGTSYNQKFKGKATLTVDKSSSTAYMELRSLTSEDSAVYYCARRDGGSYEWAMDYWGQGTSVTVSS
VL: DIVLTQSPASLSMAIGEKVTIRCITSTDIDDDMNWYQQKPGEPPKLLISEGNTLRPGVPSRFSSSGYGTDFVFTIENMLSEDVADYYCLQSDNLPLTFGGGTKLEIK
notes: variable heavy chain of 16C; variable light chain of 16C; IgM; Vl bt20, JK2; From the human La transgenic mouse; called polyreactive; also called anti-La mab (16C); source: hybridoma cell culture supernatant
Turning to B8, the binding result in assay [7] is recorded as “binds”.

B9: anti-La monoclonal antibody 27E (antibody, V domains shown)
VH: EVQLQESGAELARPGASVKLSCKASGYSFRSYGINWVKQRTGQGLEWIGEIYPGSGTTFYNEKFRGKATLTADKSSSTAYMQLKSLTSEDSAVYFCARHGGYPFYFDYWGQGTTLTVSS
VL: DIVMTQSPAIMSASPGEKVTISCSASSSVSYMYWYQQKPGSSPKPWIYRTSNLASGVPARFSGSGSGTSYSLTISSMEAEDAATYYCQQYHSYPRTFGGGTKLEIK
notes: variable heavy chain of 27E; variable light chain of 27E; IgG2b; Vl aa4, JK1; From the human La transgenic mouse; also called Group 2 anti-La mab (27E); source: hybridoma cell culture supernatant
B9: the binding result in assay [1], in assay [2] and in assay [3] was “binds” throughout.

B10: anti-La monoclonal antibody 32A (antibody, V domains shown)
VH: EVQLQQSGAELARPGASVKLSCKASGYTFTTYGLTWVKQRTGQGLEWIGEIFPGSGTTFYNEKFNDKATLTADKSSSTAYMQLTSLTSEDSAVYFCARYSNYPYYFDYWGQGTTLTVSS
VL: QIVLTQSPTIMSASPGEKVTISCSASSSVSYMYWYQQKPGSSPKPWIYRTSNLASGVPDRFSGSGSGTSYSLTISSMEAEDAATYYCQQYHSYPRTFGGGTKLEIK
notes: variable heavy chain of 32A; variable light chain of 32A; IgG1; Vl aa4, JK1; From the human La transgenic mouse; also called Group 2 anti-La mab (32A); source: hybridoma cell culture supernatant
Turning to B10, in assay [2], the binding result is “binds”.
